Experimental data reported in US20260022175A1 (Chugai, published 2026).
Substitutions are numbered along the chain they refer to. In names and notes the source's numbering stands.

T1: human FcγRIIa R allotype extracellular domain with C-terminal His-tag (human, UniProt P12318 34-217)
T1 construct: extracellular domain; also called hFcγR IIa R
T1 sequence (looked up): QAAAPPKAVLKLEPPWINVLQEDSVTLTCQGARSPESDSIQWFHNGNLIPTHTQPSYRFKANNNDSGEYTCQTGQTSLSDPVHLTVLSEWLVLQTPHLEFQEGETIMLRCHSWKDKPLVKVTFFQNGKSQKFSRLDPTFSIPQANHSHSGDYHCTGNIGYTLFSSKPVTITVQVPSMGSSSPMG

T2: human FcγRIIa H allotype extracellular domain with C-terminal His-tag (human, UniProt P12318 34-217)
T2 construct: extracellular domain; also called hFcγR IIa H
T2 sequence (looked up): T1 sequence (looked up) with R134H

T3: human FcγRIIb extracellular domain with C-terminal His-tag (human, UniProt P31994 43-217)
T3 construct: extracellular domain; also called hFcγR IIb
T3 sequence (looked up): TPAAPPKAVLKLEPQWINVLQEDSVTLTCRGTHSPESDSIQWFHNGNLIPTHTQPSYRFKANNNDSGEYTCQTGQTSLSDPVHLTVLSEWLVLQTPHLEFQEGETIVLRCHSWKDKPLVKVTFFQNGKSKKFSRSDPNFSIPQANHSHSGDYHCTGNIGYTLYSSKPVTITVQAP

B1: 04H1389-G1m/04L1086-lam1 (antibody, human IgG1, lambda, V domains shown)
VH: EVQLVESGGGLVKPGGSLRLSCAASGFTFSSKTMNWVRQAPGKGLEWVSSISTQSHYIYYAESVKGRFTISRDNAKNSLYLQMNSLRAEDTAVYYCARYGKREDMLWVFDYWGQGTLVTVSS
VL: QSALTQPPSASGSPGQTVTISCDGPSTGVGDYNYVHWYQQHPGKAPKLMIYFTSKKPSGVPDRFSGSKSGNTASLTVSGLQAEDEADYFCQTYAAPLGPMFGGGTKLTVLG
B2: 04H1389-G1m/04L1305-k0MT (antibody, human IgG1, kappa)
heavy: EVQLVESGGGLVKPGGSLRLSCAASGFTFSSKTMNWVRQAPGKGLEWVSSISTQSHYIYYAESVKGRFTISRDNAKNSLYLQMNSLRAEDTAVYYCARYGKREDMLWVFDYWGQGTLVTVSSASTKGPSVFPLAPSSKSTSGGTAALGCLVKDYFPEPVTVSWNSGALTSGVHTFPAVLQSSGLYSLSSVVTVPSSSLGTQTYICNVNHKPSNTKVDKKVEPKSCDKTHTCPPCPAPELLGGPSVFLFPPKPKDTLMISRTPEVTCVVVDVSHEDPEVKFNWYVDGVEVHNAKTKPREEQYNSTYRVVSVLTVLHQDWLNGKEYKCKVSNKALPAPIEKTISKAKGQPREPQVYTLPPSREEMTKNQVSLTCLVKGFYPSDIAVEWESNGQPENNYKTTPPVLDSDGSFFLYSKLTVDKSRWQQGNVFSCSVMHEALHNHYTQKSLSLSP
light: DIVMTQSPLSLPVTPGEPASISCDGPSTGVGDYNYVHWYQQKPGQAPRLLIYFTSKKPSGVPDRFSGSGSGTDFTLKISRVEAEDVGVYYCQTYAAPLGPMFGQGTKLEIKRTVAAPSVFIFPPSDEQLKSGTASVVCLLNNFYPREAKVQWKVDNALQSGNSQESVTEQDSKDSTYSLSSTLTLSKADYEKHKVYACEVTHQGLSSPVTKSFNRGEC
B3: 04H1654-KT462/04L1610-lam1//04H1656-HT441/04L1610-lam1 (antibody, human IgG1, lambda)
heavy 1: QVQLVESGGGVVQPGGSLRLSCAASGFTFSSKTMNWVRQAPGKGLEWVSSISTQSHYIYYARSVRGRFTISRDNAKNSLYLQMNSLRAEDTAVYYCARYGKREDMLWVFDYWGQGTLVTVSSASTKGPSVFPLAPSSKSTSGGTAALGCLVKDYFPEPVTVSWNSGALTSGVHTFPAVLQSSGLYSLSSVVTVPSSSLGTQTYICNVNHKPSNTKVDKRVEPKSCDKTHTCPPCPAPEFQWGPMVFLFPPKPKDVLMISRTPEVTCVVVDVSDEEPEVKFNWYVDGVEVHNAKTKPREEQYNATYRVVSVLPVLHQDWLNGKEYKCKVSNDALPAPIEKTISKAKGQPREPQVYTLPPSRKEMTKNQVSLTCLVKGFYPSDIAVEWESNGQPENNYKTTPPVLDSDGSFFLYSKLTVDKSRWQQGNVFSCSVMHEALHNHYTQKSLSLSP
heavy 2: B3 heavy 1 with R62E, K101A, F239L, Q240L, W241A, M244S, D273H, K339E, K361E, K444E
light: QSALTQPPSASGSPGQSVTISCEGPSTGVGDYNWVHWYQQHPGKAPKLMIYFTSKKPSGVPDRFSGSKSGNTASLTVSGLQAEDEADYYCQTYAAPLGPMFGGGTKLTVLGQPKAAPSVTLFPPSSEELQANKATLVCLISDFYPGAVTVAWKADSSPVKAGVETTTPSKQSNNKYAASSYLSLTPEQWKSHRSYSCQVTHEGSTVEKTVAPTECS
notes: Heterodimerized antibody
B4: 04H1654-KT473/04L1610-lam1//04H1656-HT451/04L1610-lam1 (antibody)
heavy 1: B3 heavy 1 with N439A, Y441T, Q443R, S445E
heavy 2: QVQLVESGGGVVQPGGSLRLSCAASGFTFSSKTMNWVRQAPGKGLEWVSSISTQSHYIYYAESVRGRFTISRDNAKNSLYLQMNSLRAEDTAVYYCARYGAREDMLWVFDYWGQGTLVTVSSASTKGPSVFPLAPSSKSTSGGTAALGCLVKDYFPEPVTVSWNSGALTSGVHTFPAVLQSSGLYSLSSVVTVPSSSLGTQTYICNVNHKPSNTKVDKRVEPKSCDKTHTCPPCPAPELLAGPSVFLFPPKPKDVLMISRTPEVTCVVVDVSHEEPEVKFNWYVDGVEVHNAKTKPREEQYNATYRVVSVLPVLHQDWLNGKEYKCKVSNDALPAPIEETISKAKGQPREPQVYTLPPSREEMTKNQVSLTCLVKGFYPSDIAVEWESNGQPENNYKTTPPVLDSDGSFFLYSKLTVDKSRWQQGNVFSCSVMHEALHAHTTREELSLSP
light: B3 light
notes: Heterodimerized antibody with N434A/Y436T/Q438R/S440E; also called SW1610-ART5+ACT1

What was measured:
human CTLA4 [1] = target: T4, human CTLA4 (human); experiment: SPR Biacore T200, 37C, antibody captured, ATP 1 uM
T4 construct: also called hCTLA4; hCTLA4-His-BAP
Description: (§1) Biacore T200 was used to measure the binding of the generated antibodies to human CTLA4. 20 mM ACES (pH 7.4), 150 mM NaCl, 2 mM MgCl₂, 0.05% Tween 20 with ATP added to the desired concentration was used as the running buffer, and the assay was performed at 37° C. First, Protein G (CALBIOCHEM) was immobilized onto a Series S Sensor Chip CM3 (GE Healthcare), and the antibodies were captured by interacting an antibody solution prepared in an ATP-free running buffer with the chip. Next, by interacting with a human CTLA4 solution prepared in a running buffer containing ATP to the desired concentration, or a human CTLA4 solution prepared in a running buffer containing no ATP, the binding ability of the antibody to human CTLA4 in the presence or absence of ATP was evaluated. Chips were regenerated with 25 mM NaOH and 10 mM Glycine-HCl (pH 1.5), and assay was performed by repeatedly capturing antibodies. The dissociation constant of each antibody for CTLA4 was calculated using Biacore T200 Evaluation Software 2.0. Specifically, the binding rate constant ka (L/mol/s) and the dissociation rate constant kd (1/s) were calculated by global fitting of the sensorgrams obtained by the measurement, using a 1:1 Langmuir binding model. The dissociation constant KD (mol/L) was calculated from those values. Alternatively, the dissociation constant KD (mol/L) was calculated by the steady state model. In addition, the binding amount of CTLA4 per unit amount of antibody was calculated by correcting the amount of CTLA4 bound as calculated from the sensorgram obtained by the assay with the amount of antibody captured onto the chip surface.

human CTLA4 [2] = target: T4, human CTLA4; experiment: SPR Biacore T200, 37C, antibody captured, ATP 10 uM
Description: (§2) Biacore T200 was used to measure the binding of the generated antibodies to human CTLA4. 20 mM ACES (pH 7.4), 150 mM NaCl, 2 mM MgCl₂, 0.05% Tween 20 with ATP added to the desired concentration was used as the running buffer, and the assay was performed at 37° C. First, Protein G (CALBIOCHEM) was immobilized onto a Series S Sensor Chip CM3 (GE Healthcare), and the antibodies were captured by interacting an antibody solution prepared in an ATP-free running buffer with the chip. Next, by interacting with a human CTLA4 solution prepared in a running buffer containing ATP to the desired concentration, or a human CTLA4 solution prepared in a running buffer containing no ATP, the binding ability of the antibody to human CTLA4 in the presence or absence of ATP was evaluated. Chips were regenerated with 25 mM NaOH and 10 mM Glycine-HCl (pH 1.5), and assay was performed by repeatedly capturing antibodies. The dissociation constant of each antibody for CTLA4 was calculated using Biacore T200 Evaluation Software 2.0. Specifically, the binding rate constant ka (L/mol/s) and the dissociation rate constant kd (1/s) were calculated by global fitting of the sensorgrams obtained by the measurement, using a 1:1 Langmuir binding model. The dissociation constant KD (mol/L) was calculated from those values. Alternatively, the dissociation constant KD (mol/L) was calculated by the steady state model. […]

human CTLA4 [3] = target: T4, human CTLA4; experiment: as above; remark: listed apart in the source
Description: as §1

human CTLA4 [4] = target: T4, human CTLA4; experiment: SPR Biacore T200, 37C, antibody captured, ADP 10 uM;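 further: antibodies held on a Protein G CM3 chip, human CTLA4 as analyte in ACES pH 7.4 buffer, rates from a global 1:1 Langmuir fit, Kd from rates or steady state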
human CTLA4 [5] = target: T4, human CTLA4; experiment: SPR Biacore T200, 37C, antibody captured, AMP 10 uM
Description: as §1
(§3) The binding ability of the generated variants to human CTLA4 in the presence of ADP or AMP was evaluated by Biacore T200 and compared with the binding ability in the presence of ATP.

human CTLA4 [6] = target: T4, human CTLA4; experiment: SPR Biacore T200, 37C, antibody captured, ATP 10 uM; remark: listed apart in the source
Description: as §1, §3

human CTLA4 [7] = target: T4, human CTLA4; experiment: SPR Biacore T200, 37C, antibody captured, ATP 100 uM
Description: as §2

human CTLA4 [8] = target: T4, human CTLA4; experiment: SPR Biacore T200, 37C, antibody captured, no ATP, steady state model
Description: as §2

human CTLA4 [9] = target: T4, human CTLA4; experiment: as above; remark: listed apart in the source
Description: Biacore T200 was used to measure the binding of the generated antibodies to human CTLA4. 20 mM ACES (pH 7.4), 150 mM NaCl, 2 mM MgCl₂, 0.05% Tween 20 with ATP added to the desired concentration was used as the running buffer, and the assay was performed at 37° C. First, Protein G (CALBIOCHEM) was immobilized onto a Series S Sensor Chip CM3 (GE Healthcare), and the antibodies were captured by interacting an antibody solution prepared in an ATP-free running buffer with the chip. Next, by interacting with a human CTLA4 solution prepared in a running buffer containing ATP to the desired concentration, or a human CTLA4 solution prepared in a running buffer containing no ATP, the binding ability of the antibody to human CTLA4 in the presence or absence of ATP was evaluated. Chips were regenerated with 25 mM NaOH and 10 mM Glycine-HCl (pH 1.5), and assay was performed by repeatedly capturing antibodies. The dissociation constant of each antibody for CTLA4 was calculated using Biacore T200 Evaluation Software 2.0. Specifically, the binding rate constant ka (L/mol/s) and the dissociation rate constant kd (1/s) were calculated by global fitting of the sensorgrams obtained by the measurement, using a 1:1 Langmuir binding model. The dissociation constant KD (mol/L) was calculated from those values. Alternatively, the dissociation constant KD (mol/L) was calculated by the steady state model.

human CTLA4 [10] = target: T4, human CTLA4; experiment: SPR Biacore T200, 37C, antibody captured, ATP 1 uM; remark: listed apart in the source
Description: as §1
(§4) Next, the binding ability of some variants to mouse CTLA4 and cynomolgus monkey CTLA4 was evaluated.

[11] = target: T5, mouse CTLA4 extracellular region linked with a His-tag (mCTLA4-His) (mouse, UniProt P09793 36-161); experiment: SPR Biacore T200, 37C, antibody captured, ATP 1 uM
Description: as §1, §4

[12] = target: T6, cynomolgus monkey CTLA4 (CyCTLA4-His-BAP) (cynomolgus monkey); experiment: SPR Biacore T200, 37C, antibody captured, ATP 1 uM
Description: as §1, §4

human CTLA4 [13] = target: T4, human CTLA4; experiment: SPR Biacore T200, 37C, antibody captured, ATP 10 uM; remark: listed apart in the source
Description: as §1, §4

[14] = target: T5, mouse CTLA4 extracellular region linked …; experiment: as above
Description: as §1, §4

[15] = target: T6, cynomolgus monkey CTLA4 …; experiment: as above
Description: as §1, §4

human CTLA4 [16] = target: T4, human CTLA4; experiment: SPR Biacore T200, 37C, antibody captured, ATP 100 uM; remark: listed apart in the source
[17] = target: T5, mouse CTLA4 extracellular region linked …; experiment: as above
[18] = target: T6, cynomolgus monkey CTLA4 …; experiment: as above
[19] = target: T7, human FcγRIa extracellular domain with C-terminal His-tag (human, UniProt P12314 16-292); experiment: SPR Biacore T200, captured Ab, pH 7.4
T7 construct: extracellular domain; also called hFcγR Ia; hFcγRIa
Description: (§5) The interaction between the generated antibodies and human FcγRs was analyzed by the following method using Biacore T200. 50 mM Na-Phosphate, 150 mM NaCl, 0.05% Tween20 (pH 7.4) was used as the running buffer, and the assay was performed at 25° C. For the sensor chips, Series S SA (GE Healthcare) chips onto which CaptureSelect Human Fab-lambda Kinetics Biotin Conjugate (Thermo Fisher Scientific) was immobilized were used. The antibodies of interest were captured onto these chips and each FcγR diluted in the running buffer was allowed to interact with them. Chips were regenerated with 10 mM Glycine-HCl (pH 1.5) and 25 mM NaOH, and assay was performed by repeatedly capturing antibodies. The dissociation constants KD (mol/L) for FcγRs of each antibody were calculated using Biacore T200 Evaluation Software 2.0, using the 1:1 Langmuir binding model for FcγRIa and FcγRIIIa and the steady state affinity model for FcγRIIa. For FcγRIIb, the binding amount of FcγRIIb per unit amount of antibody was calculated by correcting the binding amount of FcγRIIb obtained from the sensorgram obtained by the measurement with the amount of antibody captured onto the chip surface.

[20] = target: T1, human FcγRIIa R allotype extracellular …; experiment: SPR Biacore T200, captured Ab, pH 7.4
Description: as §5

[21] = target: T2, human FcγRIIa H allotype extracellular …; experiment: SPR Biacore T200, captured Ab, pH 7.4
Description: as §5

[22] = target: T8, human FcγRIIIa F allotype extracellular domain with C-terminal His-tag (human, UniProt P08637 17-208); experiment: SPR Biacore T200, captured Ab, pH 7.4
T8 construct: extracellular domain; also called hFcγR IIIa F
Description: as §5

[23] = target: T9, human FcγRIIIa V allotype extracellular domain with C-terminal His-tag (human, UniProt P08637 17-208); experiment: SPR Biacore T200, captured Ab, pH 7.4
T9 construct: extracellular domain; also called hFcγR IIIa V
Description: as §5

[24] = target: T3, human FcγRIIb extracellular domain with …; experiment: SPR; FcγRIIb bound amount per unit captured Ab
Description: as §5

human FcRn [25] = target: T10, human FcRn (human, UniProt P55899 24-290; P61769 21-119); experiment: SPR Biacore T200, captured Ab, pH 6.0, steady state
T10 construct: Prepared by the method of WO 2010/107110; also called hFcRn
Description: The interaction between the generated antibodies and human FcRn was analyzed by the following method using Biacore T200. 50 mM Na-Phosphate, 150 mM NaCl, 0.05% Tween20 (pH 6.0) was used as the running buffer, and the assay was performed at 25° C. For the sensor chip, Series S SA (GE Healthcare) chips onto which CaptureSelect Human Fab-lambda Kinetics Biotin Conjugate (Thermo Fisher Scientific) was immobilized were used. The antibodies of interest were captured onto these chips and FcRn diluted in the running buffer was allowed to interact with them. Chips were regenerated with 10 mM Glycine-HCl (pH 1.5) and 25 mM NaOH, and assay was performed by repeatedly capturing antibodies. The dissociation constant for FcRn of each antibody was calculated using the steady state model, using Biacore T200 Evaluation Software 2.0.

human FcRn [26] = target: T10, human FcRn; experiment: SPR; KD of 04H1656-G1m/04L1610-lam1 divided by KD of variant
[27] = target: T7, human FcγRIa extracellular domain with …; experiment: as above
[28] = target: T1, human FcγRIIa R allotype extracellular …; experiment: as above
[29] = target: T2, human FcγRIIa H allotype extracellular …; experiment: as above
[30] = target: T8, human FcγRIIIa F allotype extracellular …; experiment: as above
[31] = target: T9, human FcγRIIIa V allotype extracellular …; experiment: as above
[32] = target: T3, human FcγRIIb extracellular domain with …; experiment: SPR; binding amount divided by that of 04H1656-G1m/04L1610-lam1

T7 sequence (P12314 16-292): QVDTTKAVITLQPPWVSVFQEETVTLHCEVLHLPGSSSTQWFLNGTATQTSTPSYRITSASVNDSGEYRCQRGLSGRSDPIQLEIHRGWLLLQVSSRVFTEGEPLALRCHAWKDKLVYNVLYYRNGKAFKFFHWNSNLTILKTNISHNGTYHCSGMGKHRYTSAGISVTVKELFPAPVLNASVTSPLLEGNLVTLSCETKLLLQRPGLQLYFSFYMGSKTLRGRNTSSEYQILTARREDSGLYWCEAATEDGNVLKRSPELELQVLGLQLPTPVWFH
T9 sequence (P08637 17-208 F176V): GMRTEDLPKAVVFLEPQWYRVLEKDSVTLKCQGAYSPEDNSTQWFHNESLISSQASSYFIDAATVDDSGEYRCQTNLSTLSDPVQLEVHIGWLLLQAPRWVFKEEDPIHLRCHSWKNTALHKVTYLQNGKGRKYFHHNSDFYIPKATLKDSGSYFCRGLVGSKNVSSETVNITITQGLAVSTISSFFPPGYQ
T6 sequence (chain, as listed by the source limits assumed): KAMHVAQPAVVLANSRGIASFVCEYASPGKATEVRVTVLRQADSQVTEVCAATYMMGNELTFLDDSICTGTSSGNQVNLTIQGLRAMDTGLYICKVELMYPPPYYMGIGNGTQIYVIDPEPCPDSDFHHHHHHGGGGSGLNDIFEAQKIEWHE
T8 sequence (P08637 17-208): as the sequence (P08637 17-208 F176V) above, with V160F counted along it
T10 sequence (P55899 24-290 limits assumed, chain 1 of 2): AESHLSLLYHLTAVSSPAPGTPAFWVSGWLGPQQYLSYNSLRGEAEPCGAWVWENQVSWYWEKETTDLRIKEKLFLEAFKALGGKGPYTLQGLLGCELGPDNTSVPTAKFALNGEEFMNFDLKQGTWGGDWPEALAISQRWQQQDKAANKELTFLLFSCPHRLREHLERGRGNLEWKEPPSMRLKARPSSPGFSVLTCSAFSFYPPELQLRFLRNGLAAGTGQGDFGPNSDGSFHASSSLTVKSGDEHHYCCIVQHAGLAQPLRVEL
T10 sequence (P61769 21-119 limits assumed, chain 2 of 2): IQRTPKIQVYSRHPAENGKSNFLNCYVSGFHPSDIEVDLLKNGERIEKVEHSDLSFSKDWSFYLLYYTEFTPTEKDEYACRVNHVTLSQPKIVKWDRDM
T4 sequence (chain, as listed by the source limits assumed): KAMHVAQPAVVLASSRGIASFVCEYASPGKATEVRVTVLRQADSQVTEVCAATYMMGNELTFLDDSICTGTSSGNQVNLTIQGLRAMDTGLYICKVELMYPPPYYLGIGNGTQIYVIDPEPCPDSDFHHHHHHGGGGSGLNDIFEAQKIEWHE

Binder | Kd (human CTLA4 [1]) [nM] | Kd (human CTLA4 [2]) [nM] | Kd (human CTLA4 [3]) [nM] | Kd (human CTLA4 [4]) [nM] | koff (human CTLA4 [4]) [s⁻¹] | kon (human CTLA4 [4]) [M⁻¹ s⁻¹] | Kd (human CTLA4 [5]) [nM] | koff (human CTLA4 [5]) [s⁻¹] | kon (human CTLA4 [5]) [M⁻¹ s⁻¹] | Kd (human CTLA4 [6]) [nM] | koff (human CTLA4 [6]) [s⁻¹] | kon (human CTLA4 [6]) [M⁻¹ s⁻¹] | Kd (human CTLA4 [7]) [nM] | Kd (human CTLA4 [8]) [nM] | Kd (human CTLA4 [9]) [nM] | Kd [19] [nM] | Kd [20] [nM] | Kd [21] [nM] | Kd [22] [nM] | Kd [23] [nM] | also measured
B1 | 180 | 43 | 37 | 44 | 0.0061 | 140000 | 130 | 0.018 | 140000 | 32 | 0.0032 | 100000 | 21 | 5100 | 5700 |  |  |  |  |  | 
B2 | 82 | 19 | 15 | 25 | 0.0038 | 160000 | 79 | 0.012 | 150000 | 17 | 0.0019 | 110000 | 5.4 | 3200 | 2400 |  |  |  |  |  | Kd (human CTLA4 [10]): 72 nM; Kd [11]: 210 nM; Kd [12]: 140 nM; Kd (human CTLA4 [13]): 14 nM; Kd [14]: 32 nM; Kd [15]: 26 nM; Kd (human CTLA4 [16]): 4.6 nM; Kd [17]: 12 nM; Kd [18]: 12 nM
B3 |  |  |  |  |  |  |  |  |  |  |  |  |  |  |  | 0.12 | 180 | 99 | 17 | 4.4 | Binding amount [24]: 0.014; Kd (human FcRn [25]): 2000 nM; Relative value to KD between G1m and hFcRn (human FcRn [26]): 0.9; Relative value to KD between G1m and hFcγRs [27]: 0.8; Relative value to KD between G1m and hFcγRs [28]: 9; Relative value to KD between G1m and hFcγRs [29]: 13.5; Relative value to KD between G1m and hFcγRs [30]: 58.1; Relative value to KD between G1m and hFcγRs [31]: 218; Relative binding amount [32]: 1.7
B4 |  |  |  |  |  |  |  |  |  |  |  |  |  |  |  | 0.14 | 180 | 92 | 20 | 5.1 | Binding amount [24]: 0.012; Kd (human FcRn [25]): 540 nM; Relative value to KD between G1m and hFcRn (human FcRn [26]): 3.2; Relative value to KD between G1m and hFcγRs [27]: 0.6; Relative value to KD between G1m and hFcγRs [28]: 8.9; Relative value to KD between G1m and hFcγRs [29]: 14.5; Relative value to KD between G1m and hFcγRs [30]: 50.8; Relative value to KD between G1m and hFcγRs [31]: 190; Relative binding amount [32]: 1.5
